The values that follow come from patent publication US20220142994A1, “Beta-Carboline Compounds And Use Thereof For The Non-Cytotoxic And Immunological Treatment Of Cancer” (AC BIOSCIENCE SA, priority 2019, published 2022).

Assay [1] concerns PD-L1 on melanoma B16 cells. Nature of the assay: PD-L1 expression level by flow cytometry. Conditions: 5 μM harmine or 50 μg/ml interferon, 24 hours. The format is cell-based, murine. As for the experimental part: Melanoma B16 cells were treated by 5 μM harmine or 50 μg/ml interferon for 24 hours. PD-L1 level was assessed by flow cytometry using the FMI mode.
This can be considered as a favourable property because PD-L1 overexpression in tumour cells is constantly associated with poorer overall survival in cancer patients.
For orientation: A flow cytometer gives signals particle by particle.

The test system of assay [2] is L929 cells. The settings on record: cited from earlier work.

B1: interferon gamma: interferon gamma, known to increase the MHC I density at the cell membrane; positive control (protein, UniProt P01580 23-155, looked up)
Interferon gamma: HGTVIESLESLNNYFNSSGIDVEEKSLFLDIWRNWQKDGDMKILQSQIISFYLRLFEVLKDNQAISNNISVIESHLITTFFSNSKAKKDAFMSIAKFEVNNPQVQRQAFNELIRVVHQLLPESSLRKRKRSRC
Take B1: the “PD-L1 expression at the membrane” value in assay [1] is given as “huge effect”. The “fluorescent intensity (MHC class I and actin staining)” value in assay [2] (IFN-γ pre-treated cells compared to cells only) is “more fluorescent intensity”. For the same molecule, the actin density entry in assay [2] is on record as “significant increase of actin density”.
